The text below walks through data of patent publication US20030100068A1.

In the assay the target is RANK (Receptor Activator of NF-kappa B) on primary murine osteoblasts (murine (primary murine osteoblasts)) (UniProt O35305). The experiment in a line: cell-based or functional assay.

Some results are limits rather than exact numbers.

UniProt O35305, sequence (O35305 31-625): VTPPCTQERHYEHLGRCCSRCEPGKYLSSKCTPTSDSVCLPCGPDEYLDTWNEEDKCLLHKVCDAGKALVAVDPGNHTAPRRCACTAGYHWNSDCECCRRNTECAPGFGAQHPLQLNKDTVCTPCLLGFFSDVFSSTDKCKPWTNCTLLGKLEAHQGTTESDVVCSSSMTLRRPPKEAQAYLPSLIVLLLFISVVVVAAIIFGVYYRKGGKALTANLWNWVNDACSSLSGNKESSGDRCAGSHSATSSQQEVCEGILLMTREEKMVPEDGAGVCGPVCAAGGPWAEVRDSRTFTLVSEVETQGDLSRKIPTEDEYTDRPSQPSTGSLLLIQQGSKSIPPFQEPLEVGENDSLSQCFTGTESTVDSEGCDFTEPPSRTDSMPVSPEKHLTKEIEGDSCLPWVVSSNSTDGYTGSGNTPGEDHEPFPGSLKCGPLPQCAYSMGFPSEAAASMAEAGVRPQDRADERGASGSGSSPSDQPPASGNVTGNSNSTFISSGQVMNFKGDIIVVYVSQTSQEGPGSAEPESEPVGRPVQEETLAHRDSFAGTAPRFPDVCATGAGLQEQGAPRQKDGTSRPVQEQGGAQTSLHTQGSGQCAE

For the substance “cleaved RANKL (GST removed from GST-RANKL with human rhinovirus 3C protease) (ligand)”, the surface residence or internalization of RANK on primary osteoblasts exposed to 5 nM ligand (confocal microscopy, anti-RANK staining against membrane dye) was less than 1 h.

In turn, “GST-RANKL (fusion product of the external domain of RANKL and glutathione S-transferase) (from UniProt P08515) (ligand)” showed a surface residence or internalization of RANK on primary osteoblasts exposed to 5 nM ligand (confocal microscopy, anti-RANK staining against membrane dye) of more than 1 h.
